Results on ten molecules are retold here after ChEMBL document CHEMBL1212722, “Designer enzymes for glycosphingolipid synthesis by directed evolution” (Nat Chem Biol, 2009).

Numbering of substitutions follows the chain as printed. In names and notes the source's numbering stands.

Data set [1] is described as follows: Inhibition of Rhodococcus sp. M777 Endoglycoceramidase 2 containing wild type sequence E351S.
For data set [2], the system named is Rhodococcus sp. Briefly: Ratio of Kcat to Km of Activity of Rhodococcus sp. M777 Endoglycoceramidase 2 containing wild type sequence E351S.
For data set [3], the system named is Rhodococcus sp. Briefly: Activity of Rhodococcus sp. M777 Endoglycoceramidase 2 containing wild type sequence E351S.
Substrate in data set [4]: CCCCCCCCCCCCCC[C@@H](O)[C@@H](O)[C@@H](N)CO
Briefly: Ratio of Kcat to Km of Activity of Rhodococcus sp. M777 Endoglycoceramidase 2 V101M K200R mutant.

Substrate in data set [5]: CCCCCCCCCCCCC/C=C/[C@@H](O)[C@@H](N)CO
Briefly: (§1) Ratio of Kcat to Km of Activity of Rhodococcus sp. M777 Endoglycoceramidase 2 N334S mutant.

Substrate in data set [6]: CC(=O)N[C@H]1[C@H](O[C@@H]2[C@H](O[C@]3(C(=O)O)C[C@H](O)[C@@H](NC(C)=O)[C@H]([C@@H](O)[C@@H](O)CO)O3)[C@@H](O)[C@H](O[C@H]3[C@H](O)[C@@H](O)[C@@H](F)O[C@@H]3CO)O[C@@H]2CO)O[C@H](CO)[C@H](O)[C@@H]1O[C@@H]1O[C@H](CO)[C@H](O)[C@H](O)[C@H]1O
The description is as §1.

Substrate in data set [7]: CCCCCCCCCCCCC/C=C/[C@@H](O)[C@@H](N)CO
In words: (§2) Activity of Rhodococcus sp. M777 Endoglycoceramidase 2 N334S mutant.

Substrate in data set [8]: CC(=O)N[C@H]1[C@H](O[C@@H]2[C@H](O[C@]3(C(=O)O)C[C@H](O)[C@@H](NC(C)=O)[C@H]([C@@H](O)[C@@H](O)CO)O3)[C@@H](O)[C@H](O[C@H]3[C@H](O)[C@@H](O)[C@@H](F)O[C@@H]3CO)O[C@@H]2CO)O[C@H](CO)[C@H](O)[C@@H]1O[C@@H]1O[C@H](CO)[C@H](O)[C@H](O)[C@H]1O
The data set is described as §2.

Substrate in data set [9]: CCCCCCCCCCCCC/C=C/[C@@H](O)[C@@H](N)CO
Briefly: (§3) Ratio of Kcat to Km of Activity of Rhodococcus sp. M777 Endoglycoceramidase 2 P394S mutant.

Substrate in data set [10]: CC(=O)N[C@H]1[C@H](O[C@@H]2[C@H](O[C@]3(C(=O)O)C[C@H](O)[C@@H](NC(C)=O)[C@H]([C@@H](O)[C@@H](O)CO)O3)[C@@H](O)[C@H](O[C@H]3[C@H](O)[C@@H](O)[C@@H](F)O[C@@H]3CO)O[C@@H]2CO)O[C@H](CO)[C@H](O)[C@@H]1O[C@@H]1O[C@H](CO)[C@H](O)[C@H](O)[C@H]1O
The description is as §3.

Substrate in data set [11]: CCCCCCCCCCCCC/C=C/[C@@H](O)[C@@H](N)CO
Briefly: (§4) Activity of Rhodococcus sp. M777 Endoglycoceramidase 2 P394S mutant.

Substrate in data set [12]: CC(=O)N[C@H]1[C@H](O[C@@H]2[C@H](O[C@]3(C(=O)O)C[C@H](O)[C@@H](NC(C)=O)[C@H]([C@@H](O)[C@@H](O)CO)O3)[C@@H](O)[C@H](O[C@H]3[C@H](O)[C@@H](O)[C@@H](F)O[C@@H]3CO)O[C@@H]2CO)O[C@H](CO)[C@H](O)[C@@H]1O[C@@H]1O[C@H](CO)[C@H](O)[C@H](O)[C@H]1O
The data set is described as §4.

Substrate in data set [13]: CCCCCCCCCCCCC/C=C/[C@@H](O)[C@@H](N)CO
Briefly: (§5) Ratio of Kcat to Km of Activity of Rhodococcus sp. M777 Endoglycoceramidase 2 I183F mutant.

Substrate in data set [14]: CC(=O)N[C@H]1[C@H](O[C@@H]2[C@H](O[C@]3(C(=O)O)C[C@H](O)[C@@H](NC(C)=O)[C@H]([C@@H](O)[C@@H](O)CO)O3)[C@@H](O)[C@H](O[C@H]3[C@H](O)[C@@H](O)[C@@H](F)O[C@@H]3CO)O[C@@H]2CO)O[C@H](CO)[C@H](O)[C@@H]1O[C@@H]1O[C@H](CO)[C@H](O)[C@H](O)[C@H]1O
The description is as §5.

Substrate in data set [15]: CCCCCCCCCCCCC/C=C/[C@@H](O)[C@@H](N)CO
Briefly: (§6) Activity of Rhodococcus sp. M777 Endoglycoceramidase 2 I183F mutant.

Substrate in data set [16]: CC(=O)N[C@H]1[C@H](O[C@@H]2[C@H](O[C@]3(C(=O)O)C[C@H](O)[C@@H](NC(C)=O)[C@H]([C@@H](O)[C@@H](O)CO)O3)[C@@H](O)[C@H](O[C@H]3[C@H](O)[C@@H](O)[C@@H](F)O[C@@H]3CO)O[C@@H]2CO)O[C@H](CO)[C@H](O)[C@@H]1O[C@@H]1O[C@H](CO)[C@H](O)[C@H](O)[C@H]1O
The data set is described as §6.

Substrate in data set [17]: CCCCCCCCCCCCCC[C@@H](O)[C@@H](O)[C@@H](N)CO
In words: Ratio of Kcat to Km of Activity of Rhodococcus sp. M777 Endoglycoceramidase 2 N148S mutant.

Substrate in data set [18]: CCCCCCCCCCCCC/C=C/[C@@H](O)[C@@H](N)CO
Briefly: (§7) Ratio of Kcat to Km of Activity of Rhodococcus sp. M777 Endoglycoceramidase 2 D314Y mutant.

Substrate in data set [19]: CC(=O)N[C@H]1[C@H](O[C@@H]2[C@H](O[C@]3(C(=O)O)C[C@H](O)[C@@H](NC(C)=O)[C@H]([C@@H](O)[C@@H](O)CO)O3)[C@@H](O)[C@H](O[C@H]3[C@H](O)[C@@H](O)[C@@H](F)O[C@@H]3CO)O[C@@H]2CO)O[C@H](CO)[C@H](O)[C@@H]1O[C@@H]1O[C@H](CO)[C@H](O)[C@H](O)[C@H]1O
The data set is described as §7.

Substrate in data set [20]: CCCCCCCCCCCCC/C=C/[C@@H](O)[C@@H](N)CO
Briefly: (§8) Activity of Rhodococcus sp. M777 Endoglycoceramidase 2 D314Y mutant.

Substrate in data set [21]: CC(=O)N[C@H]1[C@H](O[C@@H]2[C@H](O[C@]3(C(=O)O)C[C@H](O)[C@@H](NC(C)=O)[C@H]([C@@H](O)[C@@H](O)CO)O3)[C@@H](O)[C@H](O[C@H]3[C@H](O)[C@@H](O)[C@@H](F)O[C@@H]3CO)O[C@@H]2CO)O[C@H](CO)[C@H](O)[C@@H]1O[C@@H]1O[C@H](CO)[C@H](O)[C@H](O)[C@H]1O
Described as §8.

Substrate in data set [22]: CCCCCCCCCCCCC/C=C/[C@@H](O)[C@@H](N)CO
In words: (§9) Activity of Rhodococcus sp. M777 Endoglycoceramidase 2 A81E mutant.

Substrate in data set [23]: CC(=O)N[C@H]1[C@H](O[C@@H]2[C@H](O[C@]3(C(=O)O)C[C@H](O)[C@@H](NC(C)=O)[C@H]([C@@H](O)[C@@H](O)CO)O3)[C@@H](O)[C@H](O[C@H]3[C@H](O)[C@@H](O)[C@@H](F)O[C@@H]3CO)O[C@@H]2CO)O[C@H](CO)[C@H](O)[C@@H]1O[C@@H]1O[C@H](CO)[C@H](O)[C@H](O)[C@H]1O
The data set is described as §9.

Substrate in data set [24]: CCCCCCCCCCCCC/C=C/[C@@H](O)[C@@H](N)CO
In words: (§10) Ratio of Kcat to Km of Activity of Rhodococcus sp. M777 Endoglycoceramidase 2 A81E mutant.

Substrate in data set [25]: CC(=O)N[C@H]1[C@H](O[C@@H]2[C@H](O[C@]3(C(=O)O)C[C@H](O)[C@@H](NC(C)=O)[C@H]([C@@H](O)[C@@H](O)CO)O3)[C@@H](O)[C@H](O[C@H]3[C@H](O)[C@@H](O)[C@@H](F)O[C@@H]3CO)O[C@@H]2CO)O[C@H](CO)[C@H](O)[C@@H]1O[C@@H]1O[C@H](CO)[C@H](O)[C@H](O)[C@H]1O
The description is as §10.

As a reminder, the Ki is the equilibrium dissociation constant of an inhibitor or competing ligand from its target. Low values mean a stronger hold on the target, high ones a looser hold on the target. For the molecule `CCCCCCCCCCCCCC[C@@H](O)[C@@H](O)[C@@H](N)CO` [PHYTOSPHINGOSINE], the Ki in [1] stood at 850 µM.
A word on the kcat/Km: it is the turnover number divided by the Michaelis constant. Broadly, the Km is the concentration of substrate that gives half-maximal velocity. A word on the kcat: it is the number of substrate molecules converted per active site and unit of time at saturation. On to `CC(=O)N[C@H]1[C@H](O[C@@H]2[C@H](O[C@]3(C(=O)O)C[C@H](O)[C@@H](NC(C)=O)[C@H]([C@@H](O)[C@@H](O)CO)O3)[C@@H](O)[C@H](O[C@H]3[C@H](O)[C@@H](O)[C@@H](F)O[C@@H]3CO)O[C@@H]2CO)O[C@H](CO)[C@H](O)[C@@H]1O[C@@H]1O[C@H](CO)[C@H](O)[C@H](O)[C@H]1O`, for which, in the data set on Rhodococcus sp. [2], the kcat/Km is 273 M⁻¹ s⁻¹. Also, in the data set on Rhodococcus sp. [3], the Km stood at 770 µM and the kcat came out at 0.21 s⁻¹.
As for `CCCCCCCCCCCCC/C=C/[C@@H](O)[C@@H](N)CO`, in the data set on Rhodococcus sp. [2], the kcat/Km turned out to be 463 M⁻¹ s⁻¹. Moreover, in the data set with Rhodococcus sp. [3], the Km was determined as 410 µM and the kcat was 0.19 s⁻¹.

B1: Endoglycoceramidase II (Rhodococcus sp), A0ACD6B832 V101M,K200R (protein)
chain: MRRTRLVSLIVTGSLVFGGGVAAAQSSLAASGSGSGSGTALTPSYLKDDDGRSLILRGFNTASSAKSAPDGMPQFTEADLAREYADMGTNFVRFLISWRSMEPAPGVYDQQYLDRVEDRVGWYAERGYKVMLDMHQDVYSGAITPEGNSGNGAGAIGNGAPAWATYMDGLPVEPQPRWELYYIQPGVMRAFDNFWNTTGRHPELVEHYAKAWRAVADRFADNDAVVAYDLMNEPFGGSLQGPAFEAGPLAAMYQRTTDAIRQVDQDTWVCVAPQAIGVNQGLPSGLTKIDDPRAGQQRIAYCPHLYPLPLDIGDGHEGLARTLTDVTIDAWRANTAHTARVLGDVPIILGEFGLDTTLPGARDYIERVYGTAREMGAGVSYWSSDPGPWGPYLPDGTQTLLVDTLNKPYPRAVAGTPTEWSSTSDRLQLTIEPDAAITAPTEIYLPEAGFPGDVHVEGADVVGWDRQSRLLTVRTPADSGNVTVTVTPAA
In the case of B1, in data set [4], the kcat/Km was found to be 3.1 M⁻¹ s⁻¹.

B2: Endoglycoceramidase II (Rhodococcus sp), A0ACD6B832 N334S (protein)
chain: B1 chain with M101V, R200K, N334S
B2: the kcat/Km in data set [5] stood at 279 M⁻¹ s⁻¹; in [6], 186 M⁻¹ s⁻¹. For the same molecule, the Km in data set [7] was 680 µM; in data set [8] it was 700 µM. Further, the figures for the kcat in data set [7] and in [8] were 0.19 s⁻¹ and 0.13 s⁻¹, respectively.

B3: Endoglycoceramidase II (Rhodococcus sp), A0ACD6B832 P394S (protein)
chain: B1 chain with M101V, R200K, P394S
On to B3, for which the kcat/Km was found to be 660 M⁻¹ s⁻¹ in data set [9] and 319 M⁻¹ s⁻¹ in [10]. The values for the Km in data set [11] and in [12] were 500 µM and 690 µM, respectively. In addition, the kcat in data set [11] was 0.33 s⁻¹; in data set [12] it was 0.22 s⁻¹.

B4: Endoglycoceramidase II (Rhodococcus sp), A0ACD6B832 I183F (protein)
chain: B1 chain with M101V, I183F, R200K
Turning to B4, the kcat/Km in data set [13] turned out to be 527 M⁻¹ s⁻¹; in [14] it was 135 M⁻¹ s⁻¹. Further, the Km in data set [15] and in data set [16] was 180 µM in each case. Further, the figures for the kcat in [15] and in [16] were 0.09 s⁻¹ and 0.02 s⁻¹, respectively.

B5: Endoglycoceramidase II (Rhodococcus sp), A0ACD6B832 N148S (protein)
chain: B1 chain with M101V, N148S, R200K
As to B5, the kcat/Km in data set [17] amounted to 2.1 M⁻¹ s⁻¹.

B6: Endoglycoceramidase II (Rhodococcus sp), A0ACD6B832 D314Y (protein)
chain: B1 chain with M101V, R200K, D314Y
As for B6, the kcat/Km in data set [18] came out at 443 M⁻¹ s⁻¹; in data set [19], 845 M⁻¹ s⁻¹. In addition, the Km worked out at 1600 µM in data set [20] and 580 µM in data set [21]. In addition, the kcat in [20] is 0.7 s⁻¹; in [21], 0.49 s⁻¹.

B7: Endoglycoceramidase II (Rhodococcus sp), A0ACD6B832 A81E (protein)
chain: B1 chain with A81E, M101V, R200K
Consider B7, for which the Km in data set [22] came out at 200 µM; in data set [23], 970 µM. In addition, the kcat in [22] and in data set [23] was 0.12 s⁻¹ in each case. Moreover, the figures for the kcat/Km in [24] and in [25] were 600 M⁻¹ s⁻¹ and 123 M⁻¹ s⁻¹, respectively.
